Article PMC4519966

test: Western blot (data not shown); settings: glycan lost; control: wild-type NOS1AP

expression_or_secretion, no change:
NOS1AP (CAPON): S204A, NOS1AP (CAPON): S47A, NOS1AP (CAPON): S271A, NOS1AP (CAPON): S183A, NOS1AP (CAPON): S269A
